Assay results reported in patent US20170247476A1 (Amgen, published 2017).

Target: HER2 (human, UniProt P04626 23-1255)
Assay: cell-based or functional assay

| Binder | EC50 Cytolysis (ng/mL), +MMP2; TDCC of SKOV-3 cells with pan T cells [ng/mL] | EC50 Cytolysis (ng/mL), -MMP2; TDCC of SKOV-3 cells with pan T cells [ng/mL] |
| --- | --- | --- |
| CD3ε(1-27)-MMP-2csV2-aCD3-aHER2-Xbody, digested with MMP-2 (bispecific antibody) chain 1: not shown chain 2: MLSQSEVQLVESGGGLVQPGGSLKLSCAASGFTFNSYAMNWVRQAPGKGLEWVARIRSKYNNYATYYADSVKGRFTISRDDSKNTAYLQMNNLKTEDTAVYYCVRHGNFGNSYVSWWAYWGQGTLVTVSSGGGGSGGGGSELVMTQTPSSLSASLGDRVTISCRASQDISNYLNWYQQKPDGTVKLLIYYTSRLHSGVPSRFSGSGSGTDYSLTISNLEQEDIATYFCQQGNTLPLTFGAGTKLEIKASTKGPSVFPLAPCSRSTSESTAALGCLVKDYFPEPVTVSWNSGALTSGVHTFPAVLQSSGLYSLSSVVTVPSSNFGTQTYTCNVDHKPSNTKVDKTVGGGGSAAAEPKSSDKTHTCPPCPAPEAAGGPSVFLFPPKPKDTLMISRTPEVTCVVVDVSHEDPEVKFNWYVDGVEVHNAKTKPREEQYNSTYRVVSVLTVLHQDWLNGKEYKCKVSNKALPAPIEKTISKAKGQPREPQVYTLPPSREEMTKNQVSLTCLVKGFYPSDIAVEWESNGQPENNYDTTPPVLDSDGSFFLYSDLTVDKSRWQQGNVFSCSVMHEALHNHYTQKSLSLSPGK | 0.22 |  |
| CD3ε(1-27)-MMP-2csV2-aCD3-aHER2-Xbody (bispecific antibody) chain 1: not shown chain 2: QDGNEEMGGITQTPYKVSISGTTVILTGGGGSGGGGSGGGGSGGPLGMLSQSEVQLVESGGGLVQPGGSLKLSCAASGFTFNSYAMNWVRQAPGKGLEWVARIRSKYNNYATYYADSVKGRFTISRDDSKNTAYLQMNNLKTEDTAVYYCVRHGNFGNSYVSWWAYWGQGTLVTVSSGGGGSGGGGSELVMTQTPSSLSASLGDRVTISCRASQDISNYLNWYQQKPDGTVKLLIYYTSRLHSGVPSRFSGSGSGTDYSLTISNLEQEDIATYFCQQGNTLPLTFGAGTKLEIKASTKGPSVFPLAPCSRSTSESTAALGCLVKDYFPEPVTVSWNSGALTSGVHTFPAVLQSSGLYSLSSVVTVPSSNFGTQTYTCNVDHKPSNTKVDKTVGGGGSAAAEPKSSDKTHTCPPCPAPEAAGGPSVFLFPPKPKDTLMISRTPEVTCVVVDVSHEDPEVKFNWYVDGVEVHNAKTKPREEQYNSTYRVVSVLTVLHQDWLNGKEYKCKVSNKALPAPIEKTISKAKGQPREPQVYTLPPSREEMTKNQVSLTCLVKGFYPSDIAVEWESNGQPENNYDTTPPVLDSDGSFFLYSDLTVDKSRWQQGNVFSCSVMHEALHNHYTQKSLSLSPGK |  | 2.62 |
| aCD3-aHER2-Xbody (bispecific antibody) chain 1: not shown chain 2: EVQLVESGGGLVQPGGSLKLSCAASGFTFNSYAMNWVRQAPGKGLEWVARIRSKYNNYATYYADSVKGRFTISRDDSKNTAYLQMNNLKTEDTAVYYCVRHGNFGNSYVSWWAYWGQGTLVTVSSGGGGSGGGGSELVMTQTPSSLSASLGDRVTISCRASQDISNYLNWYQQKPDGTVKLLIYYTSRLHSGVPSRFSGSGSGTDYSLTISNLEQEDIATYFCQQGNTLPLTFGAGTKLEIKASTKGPSVFPLAPCSRSTSESTAALGCLVKDYFPEPVTVSWNSGALTSGVHTFPAVLQSSGLYSLSSVVTVPSSNFGTQTYTCNVDHKPSNTKVDKTVGGGGSAAAEPKSSDKTHTCPPCPAPEAAGGPSVFLFPPKPKDTLMISRTPEVTCVVVDVSHEDPEVKFNWYVDGVEVHNAKTKPREEQYNSTYRVVSVLTVLHQDWLNGKEYKCKVSNKALPAPIEKTISKAKGQPREPQVYTLPPSREEMTKNQVSLTCLVKGFYPSDIAVEWESNGQPENNYDTTPPVLDSDGSFFLYSDLTVDKSRWQQGNVFSCSVMHEALHNHYTQKSLSLSPGK |  | 0.128 |
